According to patent US20140349310A1:

Biological target: human c-Met on the surface of human tumor cells (human) (UniProt P08581)
Test: FACS on tumor cells (cell line not named on the sheet), PE-labelled isotype control, FL2 Log; unstained cells 3.48

Sequence of human c-Met on the surface of human tumor cells (human) (P08581 25-1390): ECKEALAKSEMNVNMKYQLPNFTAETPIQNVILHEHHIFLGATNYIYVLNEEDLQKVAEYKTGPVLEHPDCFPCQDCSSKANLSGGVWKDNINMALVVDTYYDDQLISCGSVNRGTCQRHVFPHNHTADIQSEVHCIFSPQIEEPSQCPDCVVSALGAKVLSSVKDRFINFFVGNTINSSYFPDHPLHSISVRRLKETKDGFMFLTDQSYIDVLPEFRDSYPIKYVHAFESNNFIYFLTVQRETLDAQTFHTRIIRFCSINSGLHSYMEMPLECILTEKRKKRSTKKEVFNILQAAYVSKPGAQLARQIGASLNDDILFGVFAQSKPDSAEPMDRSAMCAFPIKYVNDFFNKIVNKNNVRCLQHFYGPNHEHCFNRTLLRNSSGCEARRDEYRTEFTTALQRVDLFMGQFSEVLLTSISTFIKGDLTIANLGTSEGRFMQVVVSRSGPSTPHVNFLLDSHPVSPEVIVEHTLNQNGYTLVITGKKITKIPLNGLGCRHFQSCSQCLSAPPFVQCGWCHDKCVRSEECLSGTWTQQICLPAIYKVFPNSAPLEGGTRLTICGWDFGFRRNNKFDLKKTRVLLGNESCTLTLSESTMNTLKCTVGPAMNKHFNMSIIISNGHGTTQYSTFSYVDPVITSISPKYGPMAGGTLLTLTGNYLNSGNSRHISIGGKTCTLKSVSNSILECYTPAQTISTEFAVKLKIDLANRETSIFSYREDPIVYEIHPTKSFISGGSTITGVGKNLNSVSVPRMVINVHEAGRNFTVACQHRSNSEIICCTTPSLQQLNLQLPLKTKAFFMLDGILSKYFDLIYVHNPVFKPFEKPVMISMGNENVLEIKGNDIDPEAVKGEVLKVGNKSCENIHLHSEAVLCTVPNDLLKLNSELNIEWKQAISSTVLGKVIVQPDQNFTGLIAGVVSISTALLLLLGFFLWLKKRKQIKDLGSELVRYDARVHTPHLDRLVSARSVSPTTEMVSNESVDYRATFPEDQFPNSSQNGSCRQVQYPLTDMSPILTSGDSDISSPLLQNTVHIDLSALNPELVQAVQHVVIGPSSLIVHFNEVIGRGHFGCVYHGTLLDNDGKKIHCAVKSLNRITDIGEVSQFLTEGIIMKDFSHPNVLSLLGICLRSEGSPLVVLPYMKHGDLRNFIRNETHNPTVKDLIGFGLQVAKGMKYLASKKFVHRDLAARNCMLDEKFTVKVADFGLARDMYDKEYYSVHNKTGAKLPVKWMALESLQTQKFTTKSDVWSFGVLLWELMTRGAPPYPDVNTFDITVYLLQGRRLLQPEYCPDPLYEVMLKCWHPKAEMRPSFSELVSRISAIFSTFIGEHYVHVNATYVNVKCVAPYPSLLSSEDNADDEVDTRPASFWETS

Mean fluorescence: 6.47
Substance: mIgG1-PE (antibody)
